Experiments:
[1] = system: B cells gated from PBMCs of healthy donors; experiment: Trogocytosis: surface antigen levels on B cells after overnight treatment of PBMCs, flow cytometry; assay type: cell-based, human
Experimental: (§1) Peripheral blood mononuclear cells (PBMCs) obtained from healthy donors were incubated overnight (16-24 h) with 10 μg/mL of either epratuzumab or an isotype control mAb (hMN-14) and the relative levels of various antigens on the surface of the B cells were analyzed by flow cytometry. PBMCs from heparinized whole blood of normal donors were isolated by density gradient centrifugation on UNI-SEP tubes (Novamed Ltd, Israel). PBMCs were reconstituted in RPMI media supplemented with 10% heat inactivated fetal bovine serum and plated at a cell density of 1.5×10^6/mL in non-tissue culture treated 48-well plates. […] Stained cells were analyzed by flow cytometry on a FACSCALIBUR® (BD Biosciences) using Flowjo (V7.6.5) software. Initially, the lymphocyte population was gated by side vs. forward scattering, and B cells were further gated from this population with the CD19 signal. The mean fluorescence intensity (MFI), obtained with fluorochrome-conjugated antibodies to various cell surface antigens, on the gated B cells was calculated following treatment with epratuzumab, hMN-14 or without antibody. PBMCs from 16 healthy donors were assessed in various experiments.

NHL patients = conditions: cited from earlier work
subjects = conditions: reported, Morchhauser et al., 2009, Goldenberg et al., Robak & Robak, 2011; cited from earlier work
B cells in PBMCs = experiment: Relative B cell count after overnight treatment of PBMCs; assay type: cell-based, human
Experimental: as §1

[2] = system: NHL Burkitt cell lines (Daudi, Raji, and Ramos); experiment: Surface markers on NHL Burkitt cell lines, isolated or spiked into normal PBMCs; assay type: cell-based, human
Excerpt: This mechanism of action may explain the limited effectiveness of high doses of epratuzumab compared to lower doses in patients with SLE.

[3] = system: patients with SLE who have failed at least one previous therapy; experiment: Combination therapy of SLE with hRFB4 and hLL2; assay type: in vivo, human; conditions: single antibody alone, same dosage and schedule
Experimental: Patients with SLE who have failed at least one previous therapy receive combination therapy with 160 mg each of hRFB4 and hLL2 (epratuzumab), administered s.c. in 2 injections weekly for four weeks. Control groups receive hRFB4 alone, hLL2 alone or irrelevant antibody (hMN-14) at the same dosage and schedule. […] All serum samples evaluated for anti-human antibodies (HAHA) are negative.

circulating B cells = conditions: may be overestimated due to use of CD19+ cells to measure B cells; cited from earlier work
Daudi cells = experiment: Dose-response of trogocytosis of CD22 and CD19 from Daudi cells (FIG. 6A, 6B); assay type: cell-based, human
[4] = Antibody-dependent cell-mediated cytotoxicity in vitro; assay type: cell-based
CD22 = target: T1, CD22 (Homo sapiens, UniProt P20273); experiment: Binding affinity for CD22+ Daudi cells determined by ELISA (FIG. 2); conditions: CD22+ Daudi cells, FIG. 2
T1 construct: endogenous in cells; host or cells: Daudi (Burkitt lymphoma) cells
Experimental: FIG. 2. Comparative binding affinity for CD22+ Daudi cells of hLL2 IgG, hRFB4 IgG, chimeric RFB4 conjugated to AD2 peptide, and hMN-14 IgG, as determined by ELISA. The binding affinity of hRFB4 as determined for Daudi cells is about 10-fold higher than that of hLL2 and about 30% higher than the chimeric RFB4.
The hRFB4 antibody was prepared as described above, resulting in a humanized anti-CD22 antibody with variable region sequences as shown in FIG. 1A and FIG. 1B (SEQ ID NO:7 and SEQ ID NO:8). After expression, the binding affinity or CD22+ Daudi cells was compared to that of the hLL2 antibody, comprising the same FR and constant region sequences but different CDR sequences, and to the chimeric RFB4 antibody, comprising the same CDR sequences but different FR and constant region sequences.

[5] = Complement-dependent cytotoxicity in vitro; assay type: cell-based
[6] = 4 doses of 80, 160 or 320 mg s.c. every two weeks
[7] = 10 μg/mL, overnight, PBMCs of healthy donors

veltuzumab: humanized IgG1 antibody against CD20
reduction of CD19, CD21 and CD79b compared with epratuzumab ([1]; PBMCs of healthy donors, overnight, FIG. 9): greater extent than epratuzumab
objective response in the 80 mg dosage group (NHL patients; 80 mg): 67%
patients showing a complete response in the 80 mg dosage group (NHL patients; 80 mg): one of three
CR/CRu (complete response) rate (NHL patients; [6]): 24%
objective response rate (CR+CRu+PR) (NHL patients; [6]): 47%
objective responses continued for 60 weeks (NHL patients; 60 weeks): Four out of eight
HAHA in serum samples (NHL patients; all serum samples evaluated): negative
safety (NHL patients; s.c.): Only occasional, mild to moderate and transient injection reactions
immunogenicity compared with rituximab (subjects): less immunogenic in subjects than rituximab
reduction of the B cell count (B cells in PBMCs; 10 μg/mL, overnight, PBMCs of healthy donors, FIG. 9): 40%

B1: hLL2: humanized anti-CD22 antibody hLL2 (epratuzumab) (antibody, V domains shown)
VH: QVQLQQSGAEVKKPGSSVKVSCKASGYTFTSYWLHWVRQAPGQGLEWIGYIYPRNDYTEYNQNFKDKATITADESTNTAYMELSSLRSEDTAFYFCARRDITTFYWGQGTTVTVSS
VL: DIQLTQSPSSLSASVGDRVTMSCKSSQSVLYSANHKNYLAWYQQKPGKAPKLLIYWASTRESGVPSRFSGSGSGTDFTFTISSLQPEDIATYYCHQYLSSWTFGGGTKVQIKR
reduction of CD22, CD19, CD21, CD20 and CD79b on the surface of B cells ([2]; PBMCs from normal donors or lupus patients, and NHL lines spiked into normal PBMCs): substantial reduction
surface markers decreased in isolated NHL cells ([2]; isolated NHL cells, no effector cells): only CD22, but not other surface markers, was appreciably decreased
CD19 level on B cells, % of untreated or control mAb [1, 7]: 50%
CD20 level on B cells, % of untreated or control mAb [1, 7]: 82%
CD21 level on B cells, % of untreated or control mAb [1, 7]: 52%
CD22 level on B cells, % of untreated or control mAb [1, 7]: 10%
CD62L level on B cells, % of untreated or control mAb [1, 7]: 73%
CD79b level on B cells, % of untreated or control mAb [1, 7]: 70%
change of CD27 (on CD27+ B cells), CD40, CD44, CD45, β7 integrin and LFA-1 (CD11a and CD18) [1, 7]: < 10 % change
responsiveness of CD27− naive B cells compared to CD27+ memory B cells ([1]; CD19, PBMCs from 3 healthy donors): more responsive
time course of the reduction of surface antigens ([1]; PBMCs of healthy donors): essentially complete within a few hours
objective responses [3]: Objective responses are observed
depletion of circulating B cells in patients, on average (circulating B cells): 35%
minimal concentration to induce the maximal level of trogocytosis of CD19 (Daudi cells; CD19 from Daudi cell, FIG. 6B): 10 ng/mL
minimal concentration to induce the maximal level of trogocytosis of CD22 (Daudi cells; CD22 from Daudi cell, FIG. 6A): 10 ng/mL
concentration inducing the maximal level of trogocytosis of CD19 and CD22 (Daudi cells; dose-response curve, FIG. 6A and 6B): 10 ng/mL
antibody-dependent cell-mediated cytotoxicity [4]: modest, but significant
Kd (CD22): 2 nM
complement-dependent cytotoxicity [5]: negligible
B cell depletion (B cells in PBMCs; either at 10 μg/mL or 1 mg/mL, ex vivo): did not cause significant B cell depletion

From patent US9701748B2, “Humanized anti-CD22 antibody” (IMMUNOMEDICS, INC., priority 2014, dated 2017)
